We go through six substances from patent publication US20240336672A1.

Common to all, as to assay: flow cytometry (Mock 2.5)
Assay [1] deals with κ (SARS-CoV-2).
The target in assay [2] is α (SARS-CoV-2).
Assay [3] deals with γ (SARS-CoV-2).
For assay [4], the target named is ι (SARS-CoV-2).
The target of assay [5] is β (SARS-CoV-2).
In assay [6] the target is SARS-CoV-2 δ variant spike protein, cell-expressed (SARS-CoV-2).
Assay [7] concerns the target ε (SARS-CoV-2).

Sequence of Adintrevimab (antibody) (VH): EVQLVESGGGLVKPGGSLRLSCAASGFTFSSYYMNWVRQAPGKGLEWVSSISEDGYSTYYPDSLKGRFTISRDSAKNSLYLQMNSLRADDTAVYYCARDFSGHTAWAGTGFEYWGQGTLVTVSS
Sequence of Adintrevimab (antibody) (VL): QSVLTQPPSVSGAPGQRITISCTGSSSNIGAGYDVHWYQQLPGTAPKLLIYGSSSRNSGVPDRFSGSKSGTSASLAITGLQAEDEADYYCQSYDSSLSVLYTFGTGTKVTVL

On to Cilgavimab (antibody), for which the log10 ΔgMFI turned out to be 4.7 in assay [1], 4.4 in assay [2], 4.7 in assay [3] and 4.9 in assay [4].

Take CAS (antibody): the log10 ΔgMFI stood at 3.1 in assay [5]; 4.9 in assay [1]; 4.4 in assay [2]; 4.6 in assay [6]; 4.6 in assay [7]; 4.9 in assay [4].

In the case of ETE (antibody), the log10 ΔgMFI in assay [5] turned out to be 2.5; in assay [1], 4.7; in assay [2], 4.2; in assay [6] it was 4.5; in assay [3], 2.5; in assay [7], 4.5. Besides, the log10 ΔgMFI in assay [4] was determined as 4.8.

As to Adintrevimab (antibody), the log10 ΔgMFI in assay [5] was 3.9; in assay [1], 4.8; in assay [2], 4.3; in assay [6], 4.5; in assay [3] it was 4.5; in assay [7], 4.5. The substance also registered a log10 ΔgMFI in assay [4] of 4.9.

Turning to TIX (antibody), the log10 ΔgMFI in assay [5] worked out at 3.9; in assay [1] it was 4.9; in assay [2], 4.5; in assay [6], 4.7; in assay [3], 4.6; in assay [7], 4.7. The same substance came in with a log10 ΔgMFI in assay [4] of 4.9.

Regarding BAM (antibody), the log10 ΔgMFI in assay [5] is 2.5; in assay [1], 3.5; in assay [2], 4.4; in assay [6] it was 2.5; in assay [3], 2.5; in assay [4], 2.5.
